According to publication PMC5085265:

Columns and labels:
[1] = target: ^C38/C81/C96M1 (variant lacking the hydrophobic mutations) (UniProt P0ABE7)
[2] = target: ^C38/C81/C96R1 (triple Cys mutant of the cytochrome cb562 variant RIDC1); test: AUC
[3] = target: ^C38/C81/C96R1 (triple Cys mutant of the cytochrome cb562 variant RIDC1)

yield of the tetrameric species [1]	stoichiometry N [2]	yield of the tetrameric species [3]	yield of the tetrameric species with 1.5-fold molar excess of Zn2+ [3]	Substance
16%	–	–	–	^C38/C81/C96M1 (variant lacking the hydrophobic mutations) (from UniProt P0ABE7 23-128)
–	4	47%	53%	^C38/C81/C96R1 (triple Cys mutant of the cytochrome cb562 variant RIDC1)
